According to patent publication US20250144186A1, “NOVEL THERAPEUTIC USES OF GARDNERELLA ENDOLYSINS” (priority 2022, published 2025):
In brackets after ≈: the same amount, converted by molar mass. Several values for one entry are separate records, joined by “and”; a condition that tells them apart may be missing. Equal entries are not always repeated. Where two headings read alike, the source gives them in different places.

Assays:
[1] = tested on: passaged G. piotii; experiment: MIC on strains passaged with MDZ-OH; type: cell-based, Gardnerella piotii
Protocol: (§1) The minimum inhibitory concentration (MIC), which is a standard measure of the activity of antimicrobials, was determined according to the Clinical and Laboratory Standards Institute protocol (2018) Methods for Antimicrobial Susceptibility Testing of Anaerobic Bacteria (Carpenter et al., 2018). […] Controls for growth in the absence of antimicrobials were also included. OD600 was recorded by a microplate reader (Tecan, Grodig, Austria) after incubation at 37° C. for 48 h or, for some fast-growing strains, after incubation for 24 h. Absence of growth was defined as OD600≤0.14. […] MIC readout and MBC99.5 spotting were performed after 72 h incubation for H2B10B11. MBC99.5 is the minimum concentration of an antibacterial agent that results in bacterial death of all cells in suspension up to a defined limit of detection, resulting in killing of at least 99.5% of bacteria.
The final volume of the reaction was 100 µL and the reactions were performed in triplicate in 384-well plates. The OD600 was measured using a microplate reader (Tecan, Grodig, Austria) to generate timepoint 0 h baseline values. […] In each round, the input CFU/mL was determined by quantitative plating.
(§2) The susceptibility of Gardnerella strains before and after 8 to 9-times passaging with sub-MIC concentrations of MZD or MDZ-OH is shown in Table 4 below. All MICs determined after 48 h of incubation.

[2] = tested on: Gardnerella piotii; experiment: MIC / MBC99.5 assessment in suspension; type: cell-based
Protocol: as §1, with “H2B10B11.” for “H2B10B11. MBC99.5 is the minimum concentration of an antibacterial agent that results in bacterial death of all cells in suspension up to a defined limit of detection, resulting in killing of at least 99.5% of bacteria.”
(§3) However, topical intravaginal antibiotic administration is recommended for BV therapy, which allows to reach concentrations of active ingredients in the mg/mL range. […] Abbreviations: n.d., not determined; SJHB, St. Jan Hospital Bruges.
(§4) MIC90 is defined as the MIC value for 90% of the tested strains. For PM-477 (H2B10), the resistance breakpoint is not defined, therefore a “% resistant” is not defined (n.d.).

[3] = tested on: Gardnerella leopoldii; experiment: MIC / MBC99.5 assessment in suspension; type: cell-based
Protocol: as §1, with “H2B10B11.” for “H2B10B11. MBC99.5 is the minimum concentration of an antibacterial agent that results in bacterial death of all cells in suspension up to a defined limit of detection, resulting in killing of at least 99.5% of bacteria.”
as §3, §4

[4] = tested on: G. vaginalis biofilm; experiment: MBEC on pre-formed biofilms of ancestor isolates; type: cell-based, Gardnerella vaginalis; conditions: for Eradication of biofilm-grown cells (FIG. 1): G. vaginalis (ATCC14018), biofilm grown 40 h, treated 24 h
Protocol: (§5) Gardnerella spp. (see figures for strain specification) was resuspended in brain heart infusion broth supplemented with 2% (w/v) gelatin, 0.5% yeast extract (w/v), 0.1% starch (w/v) and 0.25% glucose (w/v) (sBHIG). Passaged strains were resuspended in unbuffered NYCB supplemented with 1% glucose (w/v) (sNYCB). The OD600 was set to 0.1 (approx. 10^7-10^8 CFU/mL) and the cell suspension was diluted 1:10 in growth medium as input for biofilm formation. A total of 200 μL of the respective bacterial suspensions was added to 96-well flat bottom plates (tissue-culture treated, Sigma-Aldrich). The biofilms were grown under anaerobic conditions at 37° C. for 40 to 72 hours, depending on the isolate. Subsequently, the supernatant was removed, and the biofilm was treated with antimicrobials dissolved in sBHIG (at pH 5 for treatment with PM-477 (H2B10), and unbuffered for treatment with antibiotics) in 100 μL and incubated anaerobically at 37° C. for another 24 hours. After the treatment, the biofilms were washed twice with 200 μL 1x PBS and dissolved by vigorous pipetting (40x up and down). Serial dilutions of the dissolved cells were spotted on chocolate agar plates. The plates were incubated anaerobically for two to three days and the minimum biofilm eradication concentration (MBEC) of the endolysin or the antibiotics in use were calculated.
(§6) Gardnerella dominated biofilms covering the human vaginal epithelial cells are now generally considered as a hallmark of BV. Thus, it was tested how effective antibiotics and PM-477 (H2B10) are in penetrating and killing in vitro pre-formed, 40-72 h old biofilms of various Gardnerella strains.

[5] = tested on: G. piotii biofilm; type: cell-based, Gardnerella piotii
Protocol: as §5, §6

[6] = tested on: All Gardnerella; experiment: MIC assessment in suspension, panel of 22 strains; type: cell-based, Gardnerella spp.
Protocol: as §1, with “H2B10B11.” for “H2B10B11. MBC99.5 is the minimum concentration of an antibacterial agent that results in bacterial death of all cells in suspension up to a defined limit of detection, resulting in killing of at least 99.5% of bacteria.”
as §3, §4

[7] = tested on: passaged G. vaginalis; experiment: MIC on strains passaged with MDZ or MDZ-OH; type: cell-based, Gardnerella vaginalis; conditions: for MIC: Gardnerella vaginalis, 48 h; for MIC passaged: 48 h incubation
Protocol: as §1
The final volume of the reaction was 100 µL and the reactions were performed in triplicate in 384-well plates. The OD600 was measured using a microplate reader (Tecan, Grodig, Austria) to generate timepoint 0 h baseline values. The reactions were incubated anaerobically for 24 h, then the OD600 was measured again, and the MIC was measured as the lowest concentration with OD600<0.14. […] This process was repeated for a maximum of 25 rounds. In each round, the input CFU/mL was determined by quantitative plating.
as §2

[8] = ancestor G. vaginalis UGent FB049, pre-formed biofilm
[9] = ancestor G. piotii UGent 18.01, pre-formed biofilm
[10] = ancestor G. piotii UGent 21.28, pre-formed biofilm
[11] = Gardnerella piotii, N=7 strains
[12] = Gardnerella leopoldii, N=3 strains

## Cc1ncc([N+](=O)[O-])n1CCO [MDZ, metronidazole]
[1]; Gardnerella piotii, 48 h, read-out: MIC passaged
  MIC: > 2050 µg/mL
[2]; Gardnerella piotii, 48 h, read-out: MIC before passaging
  MIC: 32 µg/mL (≈ 187 µM)
[2]; Gardnerella piotii, G. piotii (BV049) UGent BV049.1
  MBC: 32 µg/mL (≈ 187 µM)
[2]; Gardnerella piotii, G. piotii (BV154) UGent BV154.1
  MBC: 32 µg/mL (≈ 187 µM)
[2]; Gardnerella piotii, G. piotii (FB041) UGent FB041
  MBC: 64 µg/mL (≈ 374 µM)
[2]; Gardnerella piotii, G. piotii (FB041) UGent FB041, suspension, read-out: MIC
  MIC: 32 µg/mL (≈ 187 µM)
[2]; Gardnerella piotii, G. piotii (Gp17) UGent 18.01(T)
  MBC: 64 µg/mL (≈ 374 µM)
[2]; Gardnerella piotii, G. piotii (Gp17) UGent 18.01(T), suspension, read-out: MIC
  MIC: 32 µg/mL (≈ 187 µM)
[2]; Gardnerella piotii, G. piotii (Gp22) UGent 21.28, suspension, read-out: MIC
  MIC: 64 µg/mL (≈ 374 µM)
[2]; Gardnerella piotii, G. piotii (P80275) UGent P80275
  MBC: 64 µg/mL (≈ 374 µM)
[2]; Gardnerella piotii, G. piotii (P80275) UGent P80275, suspension, read-out: MIC
  MIC: 16 µg/mL (≈ 93.5 µM)
[2]; Gardnerella piotii, N=7, resistance ≥32 μg/mL MDZ
  N resistant (%): 57%
[2]; Gardnerella piotii, N=7, resistance ≥32 μg/mL MDZ, ≥8 μg/mL CLI
  N resistant: 4
[2]; Gardnerella piotii, G. piotii (BV140) UGent BV140.2
  MBC: > 512 µg/mL
[3]; Gardnerella leopoldii, G. leopoldii (BV217) UGent BV217.1, suspension, read-out: MIC
  MIC: 256 µg/mL (≈ 1500 µM)
[3]; Gardnerella leopoldii, N=3, resistance ≥32 μg/mL MDZ
  N resistant (%): 100%
[3]; Gardnerella leopoldii, N=3, resistance ≥32 μg/mL MDZ, ≥8 μg/mL CLI
  N resistant: 3
[3]; Gardnerella leopoldii, N=3 strains, read-out: MIC90
  MIC90: > 256 µg/mL
[3]; Gardnerella leopoldii, read-out: MBC99.5
  MBC: 512 µg/mL (≈ 2990 µM)
[4]
  Eradication of biofilm-grown cells (FIG. 1): can be eradicated
[4]; [8]
  MBEC: 2 to 8 µg/mL
[5]; [9]
  MBEC: 8 µg/mL
[5]; [10]
  MBEC: 8 to 32 µg/mL
[6]; N=22, resistance ≥32 μg/mL MDZ
  N resistant (%): 59% and 60%
[6]; N=22, resistance ≥32 μg/mL MDZ, ≥8 μg/mL CLI
  N resistant: 13
[6]; N=22 strains
  MIC90: >256 µg/mL
[6]; N=22 strains, read-out: MIC90
  MIC90: > 256 µg/mL
[7]; read-out: MIC passaged, G. vaginalis (ATCC 14018T) passaged with sub-MIC MDZ, 48 h incubation
  MIC: > 512 µg/mL
[7]; read-out: MIC passaged, G. vaginalis (UGent 09.07) passaged 8 times with MDZ-OH, 48 h incubation
  MIC: > 2050 µg/mL
[7]; read-out: MIC passaged, G. vaginalis (UGent BV50) passaged with MDZ-OH, 48 h incubation
  MIC: > 2050 µg/mL

B1: PM-477: genetically engineered recombinant Gardnerella-specific endolysin, amino acid sequence SEQ ID NO: 1, His-tag cleaved off (protein)
chain: SKRGIDVSEWQGDIDFNAVKASGVEFVIIRAGYGIGCKDKWFEQNYRKAKTCGLDVGAYWYSYANSGFEAAEEAQSCVNMLSGKSFEYPVYFDLEEKSQLNRGRAFCDSLITGFCNKLESCGYYAGFYTSLSTANNLVSAHVRNRYALWIAQWNTHCSYQGSYGLWQYSSSGSVPGVAGRVDMDYAYVDYPSIIKNVGLNGYKNGGSYTAPQISSIDEVAREVINGDWGNGNERKQRLTSAGYDYASVQNKVNELLGVKAYRKSVDELAREVIRGTWGNGSTRKQRLTQAGYDYNAVQKRVNELL
modifications: His-tag cleaved off; H2B10
[1]; G. piotii (UGent 18.01T) passaged with MDZ-OH, 48 h incubation
  MIC passaged: 2 µg/mL
[2]; G. piotii (BV049) UGent BV049.1
  MBC99.5: 1 µg/mL
[2]; G. piotii (BV049) UGent BV049.1, suspension
  MIC: 1 µg/mL
[2]; G. piotii (BV140) UGent BV140.2
  MBC99.5: 2 µg/mL
[2]; G. piotii (BV140) UGent BV140.2, suspension
  MIC: 1 µg/mL
[2]; G. piotii (BV154) UGent BV154.1
  MBC99.5: 1 µg/mL
[2]; G. piotii (BV154) UGent BV154.1, suspension
  MIC: 0.5 µg/mL
[2]; G. piotii (FB041) UGent FB041
  MBC99.5: 1 µg/mL
[2]; G. piotii (FB041) UGent FB041, suspension
  MIC: 0.5 µg/mL
[2]; G. piotii (Gp17) UGent 18.01(T)
  MBC99.5: 4 µg/mL
[2]; G. piotii (Gp17) UGent 18.01(T), suspension
  MIC: 1 µg/mL
[2]; G. piotii (Gp22) UGent 21.28
  MBC99.5: 2 µg/mL
[2]; G. piotii (Gp22) UGent 21.28, suspension
  MIC: 1 µg/mL
[2]; G. piotii (P80275) UGent P80275
  MBC99.5: 1 µg/mL
[2]; G. piotii (P80275) UGent P80275, suspension
  MIC: 0.5 µg/mL
[2]; G. piotii (UGent 18.01T), 48 h incubation
  MIC before passaging: 1 µg/mL
[2]; [11]
  MIC90: 1 µg/mL
  MIC Range: 0.5 to 1 µg/mL
[3]; G. leopoldii (BV13) UGent BV13.2
  MBC99.5: 2 µg/mL
[3]; G. leopoldii (BV13) UGent BV13.2, suspension
  MIC: 0.5 µg/mL
[3]; G. leopoldii (BV217) UGent BV217.1
  MBC99.5: 1 µg/mL
[3]; G. leopoldii (BV217) UGent BV217.1, suspension
  MIC: 0.25 µg/mL
[3]; G. leopoldii (Gl11) UGent 09.48
  MBC99.5: 0.5 µg/mL
[3]; G. leopoldii (Gl11) UGent 09.48, suspension
  MIC: 0.125 µg/mL
[3]; [12]
  MIC90: 0.5 µg/mL
  MIC Range: 0.125 to 0.5 µg/mL
[4]
  Eradication of biofilm-grown cells (FIG. 1): can be eradicated
[4]; ancestor G. vaginalis ATCC14018, pre-formed biofilm, 24 h treatment
  MBEC: 32 µg/mL
[4]; ancestor G. vaginalis UGent 09.07, pre-formed biofilm
  MBEC: 16 µg/mL
[4]; ancestor G. vaginalis UGent BV50, pre-formed biofilm
  MBEC: 2 µg/mL
[4]; ancestor G. vaginalis UGent BV111.5, pre-formed biofilm
  MBEC: 8 to 32 µg/mL
[4]; [8]
  MBEC: 0.5 to 2 µg/mL
[5]; [9]
  MBEC: 8 µg/mL
[5]; [10]
  MBEC: 2 to 8 µg/mL
[6]; N=22 strains
  MIC90: 1 µg/mL
[6]; N=22 strains, listed as PM-477 (H2B10)
  MIC Range: <0.03-1^ μg/mL
[7]; G. vaginalis (ATCC 14018T) passaged with sub-MIC MDZ
  MIC passaged: 0.13 µg/mL
[7]; G. vaginalis (UGent 09.07) passaged 8 times with MDZ-OH
  MIC passaged: 0.25 µg/mL
[7]; G. vaginalis (UGent BV50) passaged with MDZ-OH
  MIC passaged: 0.25 µg/mL
